Test results reported in the nanobody polyreactivity screen of Harvey et al. (2022).

Test: yeast display, Sf9 membrane polyspecificity reagent, FACS + sequencing; frameworks hold sequencing errors
How it was run: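 After 36–48 hours of galactose induction, yeast (Saccharomyces cerevisiae BJ5465) displaying a synthetic nanobody library were stained at 4 °C for 1 hour with 10% biotinylated, detergent-solubilized Sf9 membrane reagent. Streptavidin microbeads enriched the stained cells before FACS sorting into low and high (top ~1%) gates on anti-HA and streptavidin fluorescence. Each clone's polyreactivity label reflects its gate of origin.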
In the case of “QVHLVESGGGLVQAGGSLRLSCAATGSTFRYNAMGWYRQAPGKERELVAAISWRGGSTYYADSVKGRFTISRDNAKNTVYLQMNSLKPEDTAVYYCAADRYPSTTYPLSDYNYWGQGTQVTVSS”, the “polyreactivity (PSR sort gate)” value is reported as “high polyreactivity”. For “QVHLVESGGGLVQAGGSLRLSCAATGYIFDSYAMGWYRPAPGKEREFVAAISGSDGSTYYADSVKGRFTISRDNAKNTVYLQMNSLKPEDTAVYYCAADPYYGEMEYWGQGTQVTVSS”, the “polyreactivity (PSR sort gate)” value was “low polyreactivity”. With “QVHLVESGGGLVQAGGSLRLSCADSGFIFWSYVMGWNRQAPGKESELVAAIDYSGASTYYADSVKGRFTISRDNAKNTVSLQMNSLKPEDTAVYYCNAVAYYPYGYDYWGQGTQVTVSS” the “polyreactivity (PSR sort gate)” value was “low polyreactivity”. With “QVHLVESGGGLVQAGGSLRLSCADSGRTFGTYAMGWYRQAPGKERELVAAISSGGSTYADSVKGRFTISRDNAKNTVYLQMNSLKPVDTAVYYCNADFSARNYHYYPRRFKYYYWGQGTQVTVSS” the “polyreactivity (PSR sort gate)” value was “high polyreactivity”. With “QVHLVESGGGLVQAGGSLRLSCDASGFTFYWYAMGWYRQPPGKERELVAAISNRGGSKYYADSVKGRFTISRDNAKNTVYLQMNSLKPEDTAVYYCGAEWYGRMYYWGQGTQVTVSS” the “polyreactivity (PSR sort gate)” value was “high polyreactivity”. With “QVHLVESGGGLVQAGGSLRLSCDASGSIFTYYAIGWYRPAPGKERELVAAITNGVDSTYYADSVKGRFTISRDNAKNTVYLQINSLKPEDTAVYYCNADTVVEWFSPSREYDYWGQGTQVTVSS” the “polyreactivity (PSR sort gate)” value was “low polyreactivity”. With “QVHLVESGGGLVQAGGSLRLSFAASGRIFYYNAMGWYRQAHGKERELVAAIRGGCSTNYADSVKGRFTISRDNAKNTVYLQMNSLKPEDTAVYYCNTAVWGPHRYDYWGQGTQVTVSS” the “polyreactivity (PSR sort gate)” value was “low polyreactivity”. With “QVHLVESGGGLVQAGGSLRLSGAASGSISGLYAMGCYRQAPGKEREFVARIRWRGDSTYYADSVKGRFTISRDNAKNTVYLQMNSLKPEDTAVYYCAAGLYLFQIWFVNEYDYWGQGTQVTVSS” the “polyreactivity (PSR sort gate)” value was “high polyreactivity”. In the case of “QVHLVESGGGLVQAGGSLRLSSAASGNIFESYALGWYRQAPGKERELVAAISGSGDSTNYADSVKGRFTISRDNAKNSVYLQMNSLKPEDTAVYYCAARPEVRHQYRRYDYWGQGTQVTVSS”, the “polyreactivity (PSR sort gate)” value is reported as “low polyreactivity”. With “QVHLVESGGGLVQAGGSLRLSSAASGRTFTAYTMGSYRQAPGKEREMVASISSGVTYADSVKGRFTISRDNAKNTVYLQMNSLKTVDTAVYYCAARLWYVQGYVPYVHHRFDYWGQGTQVTVSS” the “polyreactivity (PSR sort gate)” value was “low polyreactivity”. For “QVHLVESGGGLVQAGGSLRLSSAASGSIFIIYAMGWYRQAPGKERELVADITCRGGDTYYADSVKGRFTISRDNAKNTVYLQMNSLKPEDTAVYYCAARAGYPYTVQDVGVSAYDYWGQGTQVTVSS”, the “polyreactivity (PSR sort gate)” value was “low polyreactivity”. In the case of “QVHLVESGGGLVQAGGSLRLTCAASGFIFEYNAMGCYRQAPGKEREFVAAITSSGGSTYYADSVIGRFTISRDNAKNTVYLQMNSLKPEDTAVYYCARVRRSAYYKDYYYWGQGTQVTVSS”, the “polyreactivity (PSR sort gate)” value is reported as “high polyreactivity”. In the case of “QVHLVESGGGLVQAGGSLRLTCAASGRIFAHYAMGWYRQAPGKERELVAAISSGGSTYYADSVKGRFTISRDNAKNTVYLQMNSVKPEDTAVYYCNKRPVRRKYDYWGQGTQVTVSS”, the “polyreactivity (PSR sort gate)” value is reported as “low polyreactivity”. For “QVHLVESGGGLVQAGGSLRLTCAASGRIFSSYAMGWYRQAPGKVRELVPAITRGGSTYYADSVKGRFTISRDNAKYTVYLQMNSLKPEDTGVYYCAGRQPYRYWFWGNEDFWGQGSQVTVSS”, the “polyreactivity (PSR sort gate)” value was “high polyreactivity”. In the case of “QVHLVESGGGLVQAGGSLRLTCAASGRILWSYAMGWYRQAPGKERELVAAITSGTRTNYADSVKGRFTISRDNAKNTVYLQMNSVKPEDTAVFSCNAVSLRYRFDYWGQGTQLTVSS”, the “polyreactivity (PSR sort gate)” value is reported as “high polyreactivity”. For “QVHLVESGGGLVQAGGSLRLTCAASGRTFGRYAMGWYRQAPGKERELVAAIRYTGGSTYADSVKGRFTISRDNAKNTVYLQMNSLKPEDTAVYYCNRGGAFNTRNEITRYGYWGQVTQVTVSS”, the “polyreactivity (PSR sort gate)” value was “low polyreactivity”. In the case of “QVHLVESGGGLVQAGGSLRLTCAASGRTFGWNVMGWYRQAPGKERELVAAISGSGGSTYYADSVKGRFTISRDNAKNTVYLQMNSLKPEDTAVYYCAALYGPGREYDYWGQGTQVTVSS”, the “polyreactivity (PSR sort gate)” value is reported as “low polyreactivity”. With “QVHLVESGGGLVQAGGSLSLSCDASGRTFYENAMGWYRQAPGKERELVAAISQSSGSTYYADSVKGRFTISRDNAKNTVYLQMNSLKPEDTAVYYCAAVQGANYYNEFDYWGQGTQVTVSS” the “polyreactivity (PSR sort gate)” value was “high polyreactivity”. In the case of “QVHLVESGGGLVQAGGSQRLSCAASGSIFKYYAKAWYRQQPGKERELVATITNGGNTNYADSVYGRFTISRDNPKKTVYLQRNSLKPEDTAVYYCAARLWCKRYSSPTSLQRYDYWRQGTQVTVSS”, the “polyreactivity (PSR sort gate)” value is reported as “high polyreactivity”. In the case of “QVHLVESGGGLVQAGGTLRLSCAASGSIFATYGMGSYRQAPGKERELVAAITSSGGSTYYADSVKGRFTISRDHAKNTVYLQMNSLKPEDTAVYYFAADSYIIWYGSVVSYGEDSWGQGTQVTVSS”, the “polyreactivity (PSR sort gate)” value is reported as “low polyreactivity”. For “QVHLVESGGGLVQEGGSLPLTCAASGSTLRYYDMGWYRQPPRKERELFAAITTSGDDTYYADSVKRLFTISRDNAKYIVYLQMNSLKPEDTAVYYCAADGYGGHKYELESWGQGTQVTVSS”, the “polyreactivity (PSR sort gate)” value was “low polyreactivity”. In the case of “QVHLVESGGGLVQEGGSLRISCAASGSSFSHYTMGWYIQAPGKERELVAAISYRGGSTYYADSLKGRFTISRDNAKNTVYFQSNSLKPEDTAVYYCAAVGYYSTVRRYDYWGQRTQVTVSS”, the “polyreactivity (PSR sort gate)” value is reported as “low polyreactivity”. In the case of “QVHLVESGGGLVQEGGSLRLSCAASGIIFLWYTMGWYRQAPGKERELVATISWGGGSTYADSVNGRFTISRDNAKNTVYIQMYILQPEDTAVYYCAADNRDFRGQGYDYWGQGTQVTVSS”, the “polyreactivity (PSR sort gate)” value is reported as “low polyreactivity”. With “QVHLVESGGGLVQEGGSLRLSCPACGSTIRGNAMGWYRQAPGKERELVADITRNGGRTYYADSVKGRFTISRDNAKNNVYLQMNSLKPEDTAVYYCAKRDAYCVTQRNMDYWGQGTQVTVSS” the “polyreactivity (PSR sort gate)” value was “high polyreactivity”. For “QVHLVESGGVLVQAGGSLRLSCAASGSTFLYYAMGRYRQAPGKEREFVASISGSGGSTNYADSVKGRFTISRDNAKNTVSLQMNSLKPEDTAVYYCAKEYVTEFQGYYDWGQGSQVTVSS”, the “polyreactivity (PSR sort gate)” value was “low polyreactivity”. With “QVHLVESGGVLVQAGGSLSLSCAASGRTFIRNAMGWYRQAPGKERELVAAINSGGITNYADSVKGRFTISRDNAKNTVYLQMNSLKPEDTAVYYCNARQVLYGLYLRAYPYEYWGQGTQVTVSS” the “polyreactivity (PSR sort gate)” value was “low polyreactivity”. With “QVHLVESGVGLVQAGGSLRLSCAAYGSTCGWYAMGWYRQAPGKERELVASITWDGGRTYYADSVKGRFTISRDNAKNTVYLQMISQKPEDTAVYYCAARGVSSPLNYWGQGNQVTVSS” the “polyreactivity (PSR sort gate)” value was “low polyreactivity”. With “QVHLVESRGGLVQAGGSLRLSCAASGMGWNRHAPGKERELVATIPWSDGITYADSVKGRFTISRDNAKNTVYLQMNSLKQEVTAVYYCNADWDQTGTVFFSFGLREMDSWGQGTQVTVSS” the “polyreactivity (PSR sort gate)” value was “low polyreactivity”. For “QVHLVESRGVLVQAGGSLRLSCAASGFTFNRNAMGWYRQAPGKERELVAAISTSGGRTYYADSVKGRFTISRDNAKNTVYLHMNSLKPEDTAVYYCAADGIYPVGVDYWGQGTQVTVSS”, the “polyreactivity (PSR sort gate)” value was “high polyreactivity”. With “QVHLVESRGVLVQAGGSLRLSCAASGRTFQPYAMGWYRQSPGKERELVADITWNTGRTYYADSVKGRFTISRDNAKNTVYLQMNSLIPEDTAVYYCAGDDLGDYRFYKIYDYWGQGTQVTVSS” the “polyreactivity (PSR sort gate)” value was “high polyreactivity”. For “QVHLVESVGGLDQAGGSLRLSCAASGFIFVRYAMGWYRQAHGKEREFVAVISRRGGSTHYADSVKARFTISRDNAKNTVYLQMNSLKPEDTAVYYCNVRQGGPTVTWEYDYWGQGTQGTVSS”, the “polyreactivity (PSR sort gate)” value was “high polyreactivity”. For “QVHLVESVGGLVQAGGSLRLSCAASGFIFNRNAMGRYRQAPGKERELVAAITRAGSTSYADSVKGRFTISRDNAKNTVYLQMNSLKPEDTGVYYCAAKPFWLYAPRGWRYHYGYWGQGTQVTVSS”, the “polyreactivity (PSR sort gate)” value was “high polyreactivity”. For “QVHLVESVGGLVQAGGSLRLSCAASGRTFGGYAMGWYRQAHGKERELVAAIRRSGGSTYYADSVKGRFTISRDNAKNTVYLQMNSVKPEDTAVYYCAASGIYNVRMYYWGQGTLVTVSS”, the “polyreactivity (PSR sort gate)” value was “high polyreactivity”. For “QVHLVESWGCLVQAGGSLRLSCAASGSTFTGYAMGWYRHAPGKESEMVAAISRSGGSTSAADSVKGRFTISRDNAKNTVYLQMNSLKPEDTAVYYCAAQVQGTTRDKQRGGIGELDYWGQGTQVTVSS”, the “polyreactivity (PSR sort gate)” value was “low polyreactivity”. In the case of “QVHLVESWGGLVQAGGSLRLSCAASGSTFSDYAMGWYRQAPGKERELVAGITGGGGTYYADSVKGRFTISRDNAKNTVSLHMNSLTPEDTARYYCAAGRRHGFGYWGQGTQVTVSS”, the “polyreactivity (PSR sort gate)” value is reported as “low polyreactivity”. In the case of “QVHLVETGGGLVQAGGSLRLSCAASGSTFSFNAMGWYRQAPGKERELVAAISTSGGDTYYADSVKGRFTISRDNAKNTVYLQMNSLKPEDTAVYYCAAEYQVPGGSWMDYWGQGTQVTVSS”, the “polyreactivity (PSR sort gate)” value is reported as “high polyreactivity”. With “QVHLVQSGGGIVQAGGSLRLSCAASGIIIRRYVMGWYRQAPGKERELVATISSSGGSTYYADSVKGRFTISRDNAKTTVYLQMNSLKPEDTAVYYCAVRYYGSGRYYYTYYSWGQGTQVTVSS” the “polyreactivity (PSR sort gate)” value was “high polyreactivity”. With “QVHRGESGGGLVQAGGSLRLSCPASGFIFRYYPMGWYRQAPGKESELVASISYSGGTTYYADSVKGRFTISRDNAKNTVYLQMNSLKPEDTAVYYCNVYSRTHYQTYTDDYWGQGTQVTVSS” the “polyreactivity (PSR sort gate)” value was “high polyreactivity”. With “QVKHVESGGGLVQAGGSLRLSCAASGFTFYTYAMGWYRQKPGKESELVATISSGGRTNYADSVKGRFTISRDNAKNTVYLQMNSLKPEDTAVYYCYKRHRGGAVRFDSWGQGTQVTVSS” the “polyreactivity (PSR sort gate)” value was “low polyreactivity”. With “QVKHVESVGGLVQAGGSLRLSCAASGITFVRNAMGWSRQAPGKETDLVAAISSGGGSTYYADSVKGRFTISRDNAKNTVYLQMNSLKPEDTAVYYCNAQGFIYYWLRYDYWGQGTQVTVSS” the “polyreactivity (PSR sort gate)” value was “high polyreactivity”. In the case of “QVKILESGGGLVQAVCSLRLSCASGSTYLYAMGRYRQAPVKEREMVATISSTGSTYYADSVKGRFTISRDNAKNTVYLQMNSLKPEDTAVYYCAADVCNNGWIYGSYDEYDYWGQGTQVTVSS”, the “polyreactivity (PSR sort gate)” value is reported as “high polyreactivity”. With “QVKLEESGGGLVQAGGSLRLSCAASGFIFGSYAMGWYRQAPGKERELVAVISSSGGRTYYADSVKGRFTISRDNAKNTVYLQMNSLKPEDTAVYYCAAPWIARKYSPSEYDWGQGTQVTVSS” the “polyreactivity (PSR sort gate)” value was “high polyreactivity”. In the case of “QVKLVDSGVGLVQAGVSLRLSCAASGSIFGTYAMGWYRQAPGKERELVAAISYRGTSTYYADSVKGRFTISRDNAKNTVYLQMNSLKPEDTAVYYCAARHGYTYRSGYYYWGQGTQVTVSS”, the “polyreactivity (PSR sort gate)” value is reported as “high polyreactivity”.
